± gives the standard deviation of the averaged measurements.

The record followed here is the supplement of paper PMC10724198.

Data set [1] deals with Saccharomyces cerevisiae. Briefly: protein stability index of tFT-peptide fusion (C-terminal peptide) (PSI (0-1 scale)); higher = more stable (slower turnover). To be noted: genetic background: wild type; temperature: 30 C.
Data set [2] relates to Saccharomyces cerevisiae. The description is as above. Here is the method: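 MPS profiling in S. cerevisiae of the tFT-X12 degron library: putative degron peptides plus stable controls, 12 aa, fused to the C-terminus of a sfGFP-mCherry timer. Cells are FACS-sorted into 8 mCherry/sfGFP bins and deep-sequenced. PSI runs from 0 (unstable) to 1 (stable). Backgrounds are wild type, das1Δ and doa10Δ at 30 °C, and wild type, das1Δ, cdc34-1 and cdc53-1 at 37 °C; 2-3 technical replicates each.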

[3] abbreviates: genetic background: cdc34-1, temperature: 37 C.
[4] abbreviates: genetic background: cdc53-1, temperature: 37 C.
The mark [5] stands for this setting: genetic background: das1 deletion, temperature: 30 C.
Where [6] appears, read: genetic background: das1 deletion, temperature: 37 C.
The mark [7] stands for this setting: genetic background: doa10 deletion, temperature: 30 C.
Setting [8] is: genetic background: wild type, temperature: 30 C.
Where [9] appears, read: genetic background: wild type, temperature: 37 C.
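Also: PSI is a weighted mean of sequencing reads over stability bins, variants kept only with over 10 reads, mCherry proximal and sfGFP distal, peptide attached via GGGS linker.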

For the sequence WFWTFIWLIMDD, the protein stability index in the data set with Saccharomyces cerevisiae [1] worked out at 0.439 ± 0.0064; in the data set on Saccharomyces cerevisiae [2] (setting [3]) it was 0.435 ± 0.049; in the data set on Saccharomyces cerevisiae [2] (setting [4]), 0.501 ± 0.044; in the data set on Saccharomyces cerevisiae [2] (setting [5]), 0.388 ± 0.016; in the data set on Saccharomyces cerevisiae [2] (setting [6]), 0.521 ± 0.025; with Saccharomyces cerevisiae [2] (setting [7]), 0.399 ± 0.027. Further, the figures for the protein stability index in the data set on Saccharomyces cerevisiae [2] (setting [8]) and with Saccharomyces cerevisiae [2] (setting [9]) were 0.41 ± 0.039 and 0.504 ± 0.043, respectively.
Take WGFLRVMVDIEL: the protein stability index turned out to be 0.252 ± 0.016 in the data set with Saccharomyces cerevisiae [1]; 0.146 ± 0.014 in the data set on Saccharomyces cerevisiae [2] (setting [3]); 0.223 ± 0.1 with Saccharomyces cerevisiae [2] (setting [4]); 0.198 ± 0.024 in the data set on Saccharomyces cerevisiae [2] (setting [5]); 0.32581 ± 9.3e-05 in the data set with Saccharomyces cerevisiae [2] (setting [6]); 0.164 ± 0.0075 in the data set with Saccharomyces cerevisiae [2] (setting [7]). Besides, the results for the protein stability index in the data set with Saccharomyces cerevisiae [2] (setting [8]) and in the data set on Saccharomyces cerevisiae [2] (setting [9]) were 0.188 ± 0.023 and 0.303 ± 0.017, respectively.
With WGRTIGATFTGR, the protein stability index in the data set on Saccharomyces cerevisiae [1] was 0.595 ± 0.15; with Saccharomyces cerevisiae [2] (setting [3]), 0.698 ± 0.029; with Saccharomyces cerevisiae [2] (setting [4]), 0.779 ± 0.0021; in the data set on Saccharomyces cerevisiae [2] (setting [5]), 0.644 ± 0.024; in the data set on Saccharomyces cerevisiae [2] (setting [6]), 0.748 ± 0.0085; with Saccharomyces cerevisiae [2] (setting [7]), 0.669 ± 0.01. Also, the protein stability index in the data set on Saccharomyces cerevisiae [2] (setting [8]) is 0.685 ± 0.013; with Saccharomyces cerevisiae [2] (setting [9]), 0.746 ± 0.019.
On to WILSIVVWGKRV, for which the protein stability index in the data set on Saccharomyces cerevisiae [1] stood at 0.188 ± 0.068; in the data set with Saccharomyces cerevisiae [2] (setting [3]), 0.2245 ± 0.0016; in the data set with Saccharomyces cerevisiae [2] (setting [4]) it was 0.363 ± 0.068; with Saccharomyces cerevisiae [2] (setting [5]), 0.231 ± 0.025; in the data set with Saccharomyces cerevisiae [2] (setting [6]), 0.433 ± 0.026; in the data set with Saccharomyces cerevisiae [2] (setting [7]) it was 0.0761 ± 0.025. Besides, the protein stability index in the data set with Saccharomyces cerevisiae [2] (setting [8]) came out at 0.114 ± 0.017; with Saccharomyces cerevisiae [2] (setting [9]), 0.209 ± 0.019.
With WMSVKLLTLRLC, the protein stability index with Saccharomyces cerevisiae [1] was found to be 0.199 ± 0.0094; in the data set with Saccharomyces cerevisiae [2] (setting [3]), 0.302 ± 0.091; in the data set on Saccharomyces cerevisiae [2] (setting [4]), 0.357 ± 0.014; in the data set with Saccharomyces cerevisiae [2] (setting [5]), 0.438 ± 0.04; in the data set on Saccharomyces cerevisiae [2] (setting [6]) it was 0.551 ± 0.019; in the data set on Saccharomyces cerevisiae [2] (setting [7]), 0.108 ± 0.031. For the same sequence, the protein stability index in the data set on Saccharomyces cerevisiae [2] (setting [8]) was 0.105 ± 0.017; with Saccharomyces cerevisiae [2] (setting [9]) it was 0.124 ± 0.0049.
Regarding WPRLSHIASFLA, the protein stability index worked out at 0.459 ± 0.025 in the data set with Saccharomyces cerevisiae [1]; 0.675 ± 0.039 in the data set with Saccharomyces cerevisiae [2] (setting [3]); 0.724 ± 0.038 with Saccharomyces cerevisiae [2] (setting [4]); 0.682 ± 0.021 in the data set on Saccharomyces cerevisiae [2] (setting [5]); 0.729 ± 0.01 in the data set on Saccharomyces cerevisiae [2] (setting [6]); 0.26889 ± 7.6e-05 in the data set with Saccharomyces cerevisiae [2] (setting [7]). Moreover, the results for the protein stability index with Saccharomyces cerevisiae [2] (setting [8]) and in the data set on Saccharomyces cerevisiae [2] (setting [9]) were 0.326 ± 0.021 and 0.509 ± 0.0095, respectively.
For WRFFLLLFFFGF, the protein stability index in the data set with Saccharomyces cerevisiae [1] was determined as 0.465 ± 0.026; with Saccharomyces cerevisiae [2] (setting [3]), 0.493 ± 0.0066; with Saccharomyces cerevisiae [2] (setting [4]) it was 0.536 ± 0.024; in the data set with Saccharomyces cerevisiae [2] (setting [5]), 0.44 ± 0.04; in the data set on Saccharomyces cerevisiae [2] (setting [6]), 0.601 ± 0.045; in the data set on Saccharomyces cerevisiae [2] (setting [7]), 0.425 ± 0.0095. Besides, the protein stability index with Saccharomyces cerevisiae [2] (setting [8]) came to 0.428 ± 0.024; in the data set on Saccharomyces cerevisiae [2] (setting [9]), 0.531 ± 0.012.
For WRIDVTIVCLGY, the protein stability index in the data set with Saccharomyces cerevisiae [1] turned out to be 0.3 ± 0.03; with Saccharomyces cerevisiae [2] (setting [3]) it was 0.157 ± 0.03; in the data set on Saccharomyces cerevisiae [2] (setting [4]) it was 0.256 ± 0.042; in the data set on Saccharomyces cerevisiae [2] (setting [5]), 0.19 ± 0.033; in the data set on Saccharomyces cerevisiae [2] (setting [6]), 0.3084 ± 0.0029; with Saccharomyces cerevisiae [2] (setting [7]), 0.169 ± 0.01. The protein stability index came out at 0.202 ± 0.029 with Saccharomyces cerevisiae [2] (setting [8]) and 0.294 ± 0.019 in the data set on Saccharomyces cerevisiae [2] (setting [9]).
For WSCGRVWQRFCD, the protein stability index came out at 0.7065 ± 0.0045 in the data set with Saccharomyces cerevisiae [1]; 0.675 ± 0.019 in the data set on Saccharomyces cerevisiae [2] (setting [3]); 0.74 ± 0.01 with Saccharomyces cerevisiae [2] (setting [4]); 0.674 ± 0.018 with Saccharomyces cerevisiae [2] (setting [5]); 0.718 ± 0.039 in the data set on Saccharomyces cerevisiae [2] (setting [6]); 0.678 ± 0.018 with Saccharomyces cerevisiae [2] (setting [7]). The results for the protein stability index in the data set on Saccharomyces cerevisiae [2] (setting [8]) and in the data set on Saccharomyces cerevisiae [2] (setting [9]) were 0.631 ± 0.014 and 0.711 ± 0.016, respectively.
Turning to WSSAHVAWCYTT, the protein stability index in the data set with Saccharomyces cerevisiae [1] stood at 0.304 ± 0.013; in the data set on Saccharomyces cerevisiae [2] (setting [3]), 0.619 ± 0.026; with Saccharomyces cerevisiae [2] (setting [4]) it was 0.723 ± 0.021; in the data set on Saccharomyces cerevisiae [2] (setting [5]), 0.5991 ± 0.0031; with Saccharomyces cerevisiae [2] (setting [6]), 0.7298 ± 0.0027; with Saccharomyces cerevisiae [2] (setting [7]), 0.1926 ± 0.00045. Moreover, the protein stability index was found to be 0.217 ± 0.022 in the data set on Saccharomyces cerevisiae [2] (setting [8]) and 0.42 ± 0.0059 in the data set on Saccharomyces cerevisiae [2] (setting [9]).
Turning to WTILTVMFCSYI, the protein stability index with Saccharomyces cerevisiae [1] was 0.275 ± 0.026; in the data set on Saccharomyces cerevisiae [2] (setting [3]) it was 0.312 ± 0.011; in the data set with Saccharomyces cerevisiae [2] (setting [4]) it was 0.396 ± 0.014; in the data set with Saccharomyces cerevisiae [2] (setting [5]), 0.276 ± 0.026; with Saccharomyces cerevisiae [2] (setting [6]), 0.418 ± 0.031; in the data set with Saccharomyces cerevisiae [2] (setting [7]), 0.282 ± 0.0044. The results for the protein stability index in the data set on Saccharomyces cerevisiae [2] (setting [8]) and in the data set with Saccharomyces cerevisiae [2] (setting [9]) were 0.261 ± 0.022 and 0.377 ± 0.019, respectively.
Take WVDVAGIVAVAG: the protein stability index in the data set on Saccharomyces cerevisiae [1] was 0.522 ± 0.036; with Saccharomyces cerevisiae [2] (setting [3]) it was 0.526 ± 0.021; with Saccharomyces cerevisiae [2] (setting [4]), 0.55 ± 0.022; with Saccharomyces cerevisiae [2] (setting [5]) it was 0.421 ± 0.026; in the data set on Saccharomyces cerevisiae [2] (setting [6]), 0.5809 ± 0.0037; with Saccharomyces cerevisiae [2] (setting [7]), 0.387 ± 0.0085. Moreover, the protein stability index in the data set on Saccharomyces cerevisiae [2] (setting [8]) amounted to 0.419 ± 0.016; in the data set on Saccharomyces cerevisiae [2] (setting [9]), 0.5495 ± 0.003.
